Literature values as cited in publication PMC2827930.

Molecular target: RBPjκ (UniProt P31266)
Chain of UniProt P31266 (P31266 53-474): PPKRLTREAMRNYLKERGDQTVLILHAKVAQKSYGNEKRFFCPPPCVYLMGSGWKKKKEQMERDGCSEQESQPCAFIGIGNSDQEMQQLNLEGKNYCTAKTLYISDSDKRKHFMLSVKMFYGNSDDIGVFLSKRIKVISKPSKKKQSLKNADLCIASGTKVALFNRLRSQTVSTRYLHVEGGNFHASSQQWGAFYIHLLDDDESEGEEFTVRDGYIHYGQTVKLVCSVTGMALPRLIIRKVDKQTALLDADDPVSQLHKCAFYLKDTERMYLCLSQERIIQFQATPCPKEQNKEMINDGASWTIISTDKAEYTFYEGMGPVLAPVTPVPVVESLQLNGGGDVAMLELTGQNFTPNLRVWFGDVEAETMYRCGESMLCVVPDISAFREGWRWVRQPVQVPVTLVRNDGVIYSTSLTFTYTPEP

Kd: 200 nM
Substance: Notch RAM (from UniProt P46531)
